# ± gives the uncertainty stated by the source.
# Assay: self-splicing fitness, log relative to wild type (ln ratio); higher = more splicing; Tetrahymena group I intron in knt gene, E. coli kanamycin selection, DiMSum; sequences stand for … in CUCUCU…GGAGGGAAAAGUUAUCAGGCAUGCACCUGGUAGCUAGUCUUUAAACCAAUAGAUUGCAUCGGUUUAAAAGGCAAGACCGUCAAAUUGCGGGAAAGGGGUCAACAGCCGUUCAGUACCAAGUCUCAGGGGAAACUUUGAGAUGGCCUUGCAAAGGGUAUGGUAAUAAGCUGACGGACAUGGUCCUAACCACGCAGCCAAGUCCUAAGUCAACAGAUCUUCUGUUGAUAUGGAUGCAGUUCACAGACUAAAUGUCGGUCGGGGAAGAUGUAUUCUUCUCAUAAGAUAUAGUCGGACCUCUCCUUAAUGGGAGCUAGCGGAUGAAGUGAUGCAACACUGGAGCCGCUGGGAACUAAUUUGUAUGCGAAAGUAUAUUGAUUAGUUUUGGAGUACUCGUGGUCG
# Method in brief: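 The eight P1ex-region nucleotides of an intron in the knt kanamycin-resistance gene on pET-22b(+) were all randomised and the library put into E. coli BL21(DE3). Six replicate transformations were grown overnight at 37°C or 30°C on LB agar with or without 25 μg/mL kanamycin, together with 100 μg/mL carbenicillin, 50 μM IPTG and 0.2% rhamnose. Colonies were pooled and amplicon-sequenced on an Illumina HiSeq 2500. Fitness from DiMSum is the error-weighted combination of wild-type-normalised replicate fold changes, kanamycin over none.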
Sequence,self-splicing fitness (ln) (30 °C),self-splicing fitness (ln) (37 °C)
UAAUAGCAAUAUUACGACAG,-2.3 ± 0.19,-0.262 ± 0.17
UAUUAGCAAUAUUACGCUUC,-3.43 ± 0.44,-2.84 ± 0.38
CGGGAGCAAUAUUACGCGAC,-3.85 ± 0.29,-1.59 ± 0.36
GUCUAGCAAUAUUACGACGG,-3.01 ± 0.29,-2.45 ± 0.27
CCCCAGCAAUAUUACGCGCC,-3.19 ± 0.19,-3.17 ± 0.47
AUCAAGCAAUAUUACGUAGU,-2.22 ± 0.08,-1.14 ± 0.097
AGGUAGCAAUAUUACGUAGG,-3.667 ± 0.026,-2.71 ± 0.039
AAGCAGCAAUAUUACGUUAC,-3.42 ± 0.29,-1.35 ± 0.18
UACCAGCAAUAUUACGUCAU,-2.21 ± 0.085,-1.52 ± 0.088
AUUGAGCAAUAUUACGUGCA,-2.91 ± 0.15,-1.85 ± 0.14
UUCUAGCAAUAUUACGAUAU,-2.27 ± 0.34,-1.77 ± 0.3
AUGUAGCAAUAUUACGUCUA,-1.25 ± 0.14,-0.893 ± 0.15
GACUAGCAAUAUUACGCUAC,-1.81 ± 0.16,-1.33 ± 0.2
UGAAAGCAAUAUUACGACCA,-0.558 ± 0.11,0.362 ± 0.14
AGCCAGCAAUAUUACGCUCG,-1.78 ± 0.18,-1.58 ± 0.18
AUGAAGCAAUAUUACGGGCU,-1.52 ± 0.11,-0.445 ± 0.13
CCGCAGCAAUAUUACGAGUA,-3.31 ± 0.24,-2.82 ± 0.28
ACCAAGCAAUAUUACGUUAC,-3.66 ± 0.2,-1.76 ± 0.14
CUGAAGCAAUAUUACGGGCA,-3.04 ± 0.22,-1.25 ± 0.2
UUGGAGCAAUAUUACGUAAG,-2.23 ± 0.26,-0.995 ± 0.24
CACCAGCAAUAUUACGUAUG,-0.556 ± 0.041,-0.105 ± 0.055
CGCAAGCAAUAUUACGAGAC,-3.4 ± 0.22,-1.81 ± 0.21
UGAGAGCAAUAUUACGAUCG,-2.1 ± 0.13,-2.12 ± 0.17
UAUCAGCAAUAUUACGCUGU,-3.25 ± 0.2,-2.16 ± 0.15
GGCGAGCAAUAUUACGGUUA,-1.07 ± 0.11,0.0284 ± 0.088
CGCGAGCAAUAUUACGUCGU,-3.51 ± 0.23,-3.58 ± 0.31

Sequence,self-splicing fitness (ln) (30 °C),self-splicing fitness (ln) (37 °C)
UCUCAGCAAUAUUACGACGA,-0.256 ± 0.12,-0.879 ± 0.13
GGCCAGCAAUAUUACGAUGC,-0.639 ± 0.093,0.00176 ± 0.11
CAAAAGCAAUAUUACGAAUG,-1.18 ± 0.057,-0.723 ± 0.076
GUAUAGCAAUAUUACGCACU,-1.9 ± 0.16,-0.384 ± 0.14
AGGCAGCAAUAUUACGAUCU,0.0214 ± 0.086,0.2 ± 0.12
ACAGAGCAAUAUUACGUUAG,-3.09 ± 0.16,-2.87 ± 0.2
UCUGAGCAAUAUUACGGCAA,-2.44 ± 0.4,-1.8 ± 0.35
CCUCAGCAAUAUUACGCUAU,-4.26 ± 0.43,-2.22 ± 0.28
UGGUAGCAAUAUUACGAAUU,-1.86 ± 0.36,-2.22 ± 0.32
UAAUAGCAAUAUUACGGGCA,-0.899 ± 0.2,-0.61 ± 0.19
CUCGAGCAAUAUUACGCAAU,-3.57 ± 0.2,
UGAAAGCAAUAUUACGUUGU,-4.1 ± 0.22,-2.04 ± 0.12
ACCAAGCAAUAUUACGGAUC,-3.49 ± 0.14,-1.28 ± 0.1
CUAUAGCAAUAUUACGUCGU,,-2.24 ± 0.34
GCACAGCAAUAUUACGUUCG,-0.717 ± 0.065,-0.441 ± 0.085
GUCGAGCAAUAUUACGUGUC,-2.18 ± 0.08,-1.6 ± 0.077
AACCAGCAAUAUUACGUCCA,-0.505 ± 0.061,-0.595 ± 0.068
CUAGAGCAAUAUUACGAAUC,-3.87 ± 0.36,-2.07 ± 0.21
CGUUAGCAAUAUUACGUCGU,,-1.81 ± 0.33
CUCCAGCAAUAUUACGGGAA,-1.92 ± 0.086,-0.479 ± 0.093
AUGCAGCAAUAUUACGAACC,-1.17 ± 0.17,-0.688 ± 0.21
CGUGAGCAAUAUUACGUUUG,-2.04 ± 0.12,-1.5 ± 0.21
UGGUAGCAAUAUUACGGCGC,-1.57 ± 0.37,-0.642 ± 0.3
CAAGAGCAAUAUUACGUGAA,-3.89 ± 0.22,-2.75 ± 0.23
AGGGAGCAAUAUUACGAUGC,,-2.65 ± 0.41
GUUCAGCAAUAUUACGUGGG,-2.07 ± 0.13,-1.92 ± 0.15

Sequence,self-splicing fitness (ln) (30 °C),self-splicing fitness (ln) (37 °C)
AAGUAGCAAUAUUACGUAAA,-1.09 ± 0.095,-0.434 ± 0.14
UUUUAGCAAUAUUACGGGGU,-1.6 ± 0.22,-1.08 ± 0.35
AGUGAGCAAUAUUACGGCCG,-3.46 ± 0.29,-1.59 ± 0.24
CCUGAGCAAUAUUACGGUGA,-4 ± 0.3,-2.64 ± 0.26
UUACAGCAAUAUUACGAUAC,-3.01 ± 0.32,-3.46 ± 0.39
GGCGAGCAAUAUUACGAAAU,-2.66 ± 0.25,-0.868 ± 0.19
UCCGAGCAAUAUUACGCCAA,,-2.4 ± 0.49
CAGUAGCAAUAUUACGUCGU,-2.6 ± 0.17,-2.44 ± 0.17
GCUCAGCAAUAUUACGUUUG,-2.64 ± 0.13,-1.8 ± 0.15
CGCAAGCAAUAUUACGUCGA,-2.24 ± 0.16,-1.67 ± 0.14
AGAGAGCAAUAUUACGUGGG,-3.01 ± 0.17,-2.71 ± 0.28
CACCAGCAAUAUUACGUUGA,-4.33 ± 0.31,-2.1 ± 0.13
UUAGAGCAAUAUUACGGAAG,-2.58 ± 0.33,
UGUAAGCAAUAUUACGUGAG,-1.07 ± 0.047,-0.92 ± 0.077
GGCAAGCAAUAUUACGCCUG,,-0.621 ± 0.47
CGCAAGCAAUAUUACGCCCU,-0.736 ± 0.085,0.327 ± 0.12
UCACAGCAAUAUUACGCGGU,-4.02 ± 0.13,-2.63 ± 0.13
CACCAGCAAUAUUACGACGA,-2.13 ± 0.14,-1.54 ± 0.12
GGAGAGCAAUAUUACGAUUC,-1.58 ± 0.29,-0.911 ± 0.26
AAGUAGCAAUAUUACGCUGC,,-0.747 ± 0.19
AAGGAGCAAUAUUACGGCCC,-2.25 ± 0.26,-1.37 ± 0.34
GGUUAGCAAUAUUACGACCG,-0.946 ± 0.25,1.43 ± 0.36
GGAGAGCAAUAUUACGGCUU,-0.815 ± 0.2,-2.01 ± 0.3
UACGAGCAAUAUUACGCUUU,-4.61 ± 0.42,-2.4 ± 0.22
UGGUAGCAAUAUUACGGACG,1.33 ± 0.17,0.34 ± 0.19
GAGAAGCAAUAUUACGGCUC,,-2.07 ± 0.21
